Patent US20130224798A1

Biological target: Toll-like Receptor 5 (TLR5) constitutively expressed by HEK293 cells (UniProt O60602)
Assay: cell-based or functional assay

B1: STF2.HA1-3(PR8), produced in E. coli (protein)
chain: MAQVINTNSLSLLTQNNLNKSQSALGTAIERLSSGLRINSAKDDAAGQAIANRFTANIKGLTQASRNANDGISIAQTTEGALNEINNNLQRVRELAVQSANSTNSQSDLDSIQAEITQRLNEIDRVSGQTQFNGVKVLAQDNTLTIQVGANDGETIDIDLKQINSQTLGLDSLNVQKAYDVKDTAVTTKAYANNGTTLDVSGLDDAAIKAATGGTNGTASVTGGAVKFDADNNKYFVTIGGFTGADAAKNGDYEVNVATDGTVTLAAGATKTTMPAGATTKTEVQELKDTPAVVSADAKNALIAGGVDATDANGAELVKMSYTDKNGKTIEGGYALKAGDKYYAADYDEATGAIKAKTTSYTAADGTTKTAANQLGGVDGKTEVVTIDGKTYNASKAAGHDFKAQPELAEAAAKTTENPLQKIDAALAQVDALRSDLGAVQNRFNSAITNLGNTVNNLSEARSRIEDSDYATEVSNMSRAQILQQAGTSVLAQANQVPQNVLSLLANSENGICYPGDFIDYEELREQLSSVSSFERFEIFPKESSWPNHNTNGVTAACSHEGKSSFYRNLLWLTEKEGSYPKLKNSYVNKKGKEVLVLWGIHHPPNSKEQQNLYQNENAYVSVVTSNYNRRFTPEIAERPKVRDQAGRMNYYWTLLKPGDTIIFEANGNLIAPMYAFALSRG
- TLR5 activity (EC50, ng/ml): 1.2 ng/mL

B2: STF2.EIII+ (protein)
chain: MAQVINTNSLSLLTQNNLNKSQSALGTAIERLSSGLRINSAKDDAAGQAIANRFTANIKGLTQASRNANDGISIAQTTEGALNEINNNLQRVRELAVQSANSTNSQSDLDSIQAEITQRLNEIDRVSGQTQFNGVKVLAQDNTLTIQVGANDGETIDIDLKQINSQTLGLDSLNVQKAYDVKDTAVTTKAYANNGTTLDVSGLDDAAIKAATGGTNGTASVTGGAVKFDADNNKYFVTIGGFTGADAAKNGDYEVNVATDGTVTLAAGATKTTMPAGATTKTEVQELKDTPAVVSADAKNALIAGGVDATDANGAELVKMSYTDKNGKTIEGGYALKAGDKYYAADYDEATGAIKAKTTSYTAADGTTKTAANQLGGVDGKTEVVTIDGKTYNASKAAGHDFKAQPELAEAAAKTTENPLQKIDAALAQVDALRSDLGAVQNRFNSAITNLGNTVNNLSEARSRIEDSDYATEVSNMSRAQILQQAGTSVLAQANQVPQNVLSLLRKGNSKLEGQLEFPRTSMEKLQLKGTTYGVCSKAFKFLGTPADTGHGTVVLELQYTGTDGPCKVPISSVASLNDLTPVGRLVTVNPFVSVATANAKVLIELEPPFGDSYIVVGRGEQQINHHWHKSGSSIGK
- TLR-5 EC50 (batch 052): > 5000 ng/mL
- TLR-5 EC50 (batch 054): 1200 ng/mL
- TLR-5 EC50 (batch 057): 198 ng/mL

B3: STF2.HA1-1His(PR8), produced in Baculovirus (protein)
chain: AQVINTNSLSLLTQNNLNKSQSALGTAIERLSSGLRINSAKDDAAGQAIANRFTANIKGLTQASRNANDGISIAQTTEGALNEINNNLQRVRELAVQSANSTNSQSDLDSIQAEITQRLNEIDRVSGQTQFNGVKVLAQDNTLTIQVGANDGETIDIDLKQINSQTLGLDSLNVQKAYDVKDTAVTTKAYANNGTTLDVSGLDDAAIKAATGGTNGTASVTGGAVKFDADNNKYFVTIGGFTGADAAKNGDYEVNVATDGTVTLAAGATKTTMPAGATTKTEVQELKDTPAVVSADAKNALIAGGVDATDANGAELVKMSYTDKNGKTIEGGYALKAGDKYYAADYDEATGAIKAKTTSYTAADGTTKTAANQLGGVDGKTEVVTIDGKTYNASKAAGHDFKAQPELAEAAAKTTENPLQKIDAALAQVDALRSDLGAVQNRFNSAITNLGNTVNNLSEARSRIEDSDYATEVSNMSRAQILQQAGTSVLAQANQVPQNVLSLLASGSGSGSSHNGKLCRLKGIAPLQLGKCNIAGWLLGNPECDPLLPVRSWSYIVETPNSENGICYPGDFIDYEELREQLSSVSSFERFEIFPKESSWPNHNTNGVTAACSHEGKSSFYRNLLWLTEKEGSYPKLKNSYVNKKGKEVLVLWGIHHPPNSKEQQNLYQNENAYVSVVTSNYNRRFTPEIAERPKVRDQAGRMNYYWTLLKPGDTIIFEANGNLIAPMYAFALSRGFGSGIITSNASMHECNTKCQTPLGAINSSLPYQNIHPVTIGECPKYVRHHHHHH
- TLR activity (EC50, ng/ml): 3 ng/mL

B4: STF2.HA1-2(PR8), produced in E. coli (protein)
chain: MAQVINTNSLSLLTQNNLNKSQSALGTAIERLSSGLRINSAKDDAAGQAIANRFTANIKGLTQASRNANDGISIAQTTEGALNEINNNLQRVRELAVQSANSTNSQSDLDSIQAEITQRLNEIDRVSGQTQFNGVKVLAQDNTLTIQVGANDGETIDIDLKQINSQTLGLDSLNVQKAYDVKDTAVTTKAYANNGTTLDVSGLDDAAIKAATGGTNGTASVTGGAVKFDADNNKYFVTIGGFTGADAAKNGDYEVNVATDGTVTLAAGATKTTMPAGATTKTEVQELKDTPAVVSADAKNALIAGGVDATDANGAELVKMSYTDKNGKTIEGGYALKAGDKYYAADYDEATGAIKAKTTSYTAADGTTKTAANQLGGVDGKTEVVTIDGKTYNASKAAGHDFKAQPELAEAAAKTTENPLQKIDAALAQVDALRSDLGAVQNRFNSAITNLGNTVNNLSEARSRIEDSDYATEVSNMSRAQILQQAGTSVLAQANQVPQNVLSLLAKGIAPLQLGKCNIAGWLLGNPECDPLLPVRSWSYIVETPNSENGICYPGDFIDYEELREQLSSVSSFERFEIFPKESSWPNHNTNGVTAACSHEGKSSFYRNLLWLTEKEGSYPKLKNSYVNKKGKEVLVLWGIHHPPNSKEQQNLYQNENAYVSVVTSNYNRRFTPEIAERPKVRDQAGRMNYYWTLLKPGDTIIFEANGNLIAPMYAFALSRGFGSGIITS
- TLR5 activity (EC50, ng/ml): 0.15 ng/mL

B5: STF2.HA1-2(PR8)mut, produced in E. coli (protein)
chain: MAQVINTNSLSLLTQNNLNKSQSALGTAIERLSSGLRINSAKDDAAGQAIANRFTANIKGLTQASRNANDGISIAQTTEGALNEINNNLQRVRELAVQSANSTNSQSDLDSIQAEITQRLNEIDRVSGQTQFNGVKVLAQDNTLTIQVGANDGETIDIDLKQINSQTLGLDSLNVQKAYDVKDTAVTTKAYANNGTTLDVSGLDDAAIKAATGGTNGTASVTGGAVKFDADNNKYFVTIGGFTGADAAKNGDYEVNVATDGTVTLAAGATKTTMPAGATTKTEVQELKDTPAVVSADAKNALIAGGVDATDANGAELVKMSYTDKNGKTIEGGYALKAGDKYYAADYDEATGAIKAKTTSYTAADGTTKTAANQLGGVDGKTEVVTIDGKTYNASKAAGHDFKAQPELAEAAAKTTENPLQKIDAALAQVDALRSDLGAVQNRFNSAITNLGNTVNNLSEARSRIEDSDYATEVSNMSRAQILQQAGTSVLAQANQVPQNVLSLLAKGAAPLQLGKCNIAGWLLGNPECDPLLPVRSWSDIAETPNSENGICYPGDFIDYEELREQLSSVSSFERFEIFPKESSWPNHNTNGVTAACSHEGKSSFYRNLLWLTEKEGSYPKLKNSYVNKKGKEVLVLWGIHHPPNSKEQQNLYQNENAYVSVVTSNYNRRFTPEIAERPKVRDQAGRMNYYWTLLKPGDTIIFEANGNLIAPMYAFALSRGFGSGIITS
- TLR5 activity (EC50, ng/ml): 1.2 ng/mL
